B1: Membrane-associated guanylate kinase, WW and PDZ domain-containing protein 3, residues 287 to 329; numbered along this chain, Q5TCQ9 (parent)
chain: MRDETLEPLPKNWEMAYTDTGMIYFIDHNTKTTTWLDPRLCKK

± gives the uncertainty stated by the source.

The variants in this data set derive from B1. Put plainly: abundance fitness (aPCA) (normalised: wild type 0, dead -1); higher = more abundant; growth selection in yeast, the domain comes from the species named. The following applies: Homo sapiens.
Consider R2F, for which the abundance fitness was -0.171 ± 0.049.

Regarding R2W, the abundance fitness is -0.226 ± 0.038.

Turning to R2K, the abundance fitness was -0.045 ± 0.073.

In the case of R2N, the abundance fitness is -0.021 ± 0.046.

For the variant M22A, the abundance fitness was 0.081 ± 0.029.

For M22C, the abundance fitness was -0.028 ± 0.11.

Take M22G: the abundance fitness amounted to 0.006 ± 0.031.

Turning to M22Q, the abundance fitness amounted to 0.096 ± 0.071.

For the variant A16R, the abundance fitness was -0.076 ± 0.032.

A16P: the abundance fitness was -0.914 ± 0.063.

A16K: the abundance fitness is -0.067 ± 0.055.

With I26W, the abundance fitness was -0.648 ± 0.056.

Consider I26S, for which the abundance fitness is -0.634 ± 0.075.

On to I26R, for which the abundance fitness is -0.321 ± 0.031.

In the case of I26Q, the abundance fitness is -0.485 ± 0.092.

On to H28G, for which the abundance fitness is -0.275 ± 0.032.

As for H28D, the abundance fitness is -0.53 ± 0.11.

In the case of W35R, the abundance fitness is -0.266 ± 0.03.

On to W35Y, for which the abundance fitness was determined as 0.126 ± 0.062.

As to W35H, the abundance fitness was -0.447 ± 0.18.

For W35A, the abundance fitness was -0.248 ± 0.032.

For the variant W35S, the abundance fitness is -0.199 ± 0.034.

Consider N29P, for which the abundance fitness was -0.525 ± 0.095.

In the case of N29H, the abundance fitness is -0.248 ± 0.14.

As for N29C, the abundance fitness is -0.132 ± 0.04.

For D27G, the abundance fitness is -0.903 ± 0.04.

With D27S, the abundance fitness is -0.644 ± 0.037.

As to D27M, the abundance fitness is -0.766 ± 0.066.

As for K31V, the abundance fitness was -0.385 ± 0.033.

As to K31I, the abundance fitness is -0.674 ± 0.45.

Consider K31H, for which the abundance fitness worked out at 0.018 ± 0.078.

Regarding D19K, the abundance fitness is -0.034 ± 0.053.

D19S: the abundance fitness is -0.019 ± 0.035.

With D19E, the abundance fitness is -0.001 ± 0.039.

Take M15D: the abundance fitness is -0.379 ± 0.041.

M15K: the abundance fitness is -0.037 ± 0.05.

In the case of M15T, the abundance fitness was -0.039 ± 0.051.

As for M15A, the abundance fitness is -0.043 ± 0.038.

With M15P, the abundance fitness is -0.11 ± 0.079.

Turning to M15C, the abundance fitness is -0.097 ± 0.053.

With K11S, the abundance fitness was -0.068 ± 0.034.

With K11T, the abundance fitness was -0.068 ± 0.043.

For the variant E14M, the abundance fitness is -0.346 ± 0.042.

As for E14Q, the abundance fitness is -0.087 ± 0.051.

In the case of T34S, the abundance fitness is -0.106 ± 0.03.

For the variant T34W, the abundance fitness was -0.743 ± 0.083.

Regarding T34M, the abundance fitness was -0.62 ± 0.12.

In the case of T34N, the abundance fitness is -0.661 ± 0.049.

T30W: the abundance fitness was -0.572 ± 0.047.

As to T30M, the abundance fitness was -0.21 ± 0.041.

On to T30C, for which the abundance fitness was -0.271 ± 0.057.

Regarding K43G, the abundance fitness is 0.03 ± 0.043.

On to K43V, for which the abundance fitness was -0.045 ± 0.065.

K43E: the abundance fitness was 0.031 ± 0.07.

Consider R39T, for which the abundance fitness was -0.22 ± 0.047.

On to R39P, for which the abundance fitness was -0.516 ± 0.035.

Take R39Q: the abundance fitness was -0.417 ± 0.045.

As for D3C, the abundance fitness is -0.164 ± 0.093.

Take D3Q: the abundance fitness is -0.074 ± 0.044.

Consider D3W, for which the abundance fitness was -0.336 ± 0.039.

For D3R, the abundance fitness is -0.127 ± 0.032.

Consider D3K, for which the abundance fitness was -0.046 ± 0.051.

As to D3G, the abundance fitness was -0.065 ± 0.036.

In the case of D3M, the abundance fitness is -0.188 ± 0.035.

For the variant G21T, the abundance fitness is -0.689 ± 0.061.

Regarding G21V, the abundance fitness is -1.18 ± 0.077.

As to G21K, the abundance fitness was -0.172 ± 0.066.

Take L40G: the abundance fitness is -0.028 ± 0.027.

In the case of L40Q, the abundance fitness is -0.014 ± 0.037.

In the case of L40E, the abundance fitness was 0.022 ± 0.037.

With C41A, the abundance fitness is 0.058 ± 0.028.

With C41D, the abundance fitness is -0.006 ± 0.039.

As to C41I, the abundance fitness worked out at 0.059 ± 0.1.

C41W: the abundance fitness is 0.007 ± 0.033.

On to C41Y, for which the abundance fitness was -0.005 ± 0.055.

Consider M1I, for which the abundance fitness was -0.152 ± 0.27.

Turning to M1N, the abundance fitness was -0.213 ± 0.13.

In the case of M1E, the abundance fitness was found to be 0.001 ± 0.038.

For N12V, the abundance fitness is -0.89 ± 0.071.

N12W: the abundance fitness is -0.412 ± 0.045.

On to N12G, for which the abundance fitness came to 0.018 ± 0.032.

For the variant N12D, the abundance fitness was -0.081 ± 0.039.

For the variant N12C, the abundance fitness was -0.257 ± 0.14.

Regarding N12P, the abundance fitness was -0.383 ± 0.054.

For L9A, the abundance fitness was -0.691 ± 0.095.

Consider L9M, for which the abundance fitness is -0.106 ± 0.054.

In the case of L9C, the abundance fitness was -0.721 ± 0.23.

As for L9K, the abundance fitness is -0.683 ± 0.087.

Y24Q: the abundance fitness is -0.582 ± 0.097.

For Y24G, the abundance fitness was -0.774 ± 0.036.

Turning to Y24L, the abundance fitness was -0.61 ± 0.036.

Turning to Y24D, the abundance fitness is -0.524 ± 0.12.

On to Y24H, for which the abundance fitness is -0.574 ± 0.11.

Turning to T32I, the abundance fitness is -0.11 ± 0.05.

Regarding T32W, the abundance fitness is -0.52 ± 0.035.

In the case of T32L, the abundance fitness was -0.152 ± 0.03.

With D37P, the abundance fitness was -0.168 ± 0.037.

Turning to D37K, the abundance fitness is -0.407 ± 0.075.

For the variant D37R, the abundance fitness is -0.263 ± 0.029.

Take P38C: the abundance fitness is -1.12 ± 0.12.

Regarding P38R, the abundance fitness is -0.954 ± 0.041.

For the variant P38A, the abundance fitness was -0.899 ± 0.046.

P38T: the abundance fitness was -0.897 ± 0.068.

With P38W, the abundance fitness is -0.963 ± 0.048.

On to P38K, for which the abundance fitness was -0.994 ± 0.077.

Take P38H: the abundance fitness was -0.806 ± 0.068.

On to I23C, for which the abundance fitness came out at 0.002 ± 0.034.

Turning to T5A, the abundance fitness was -0.04 ± 0.042.

On to T5V, for which the abundance fitness was -0.064 ± 0.033.

As to T5F, the abundance fitness was -0.384 ± 0.16.

Consider T5Q, for which the abundance fitness amounted to 0.012 ± 0.058.

In the case of T5P, the abundance fitness was -0.023 ± 0.036.

In the case of T5Y, the abundance fitness is -0.19 ± 0.056.

Consider T5N, for which the abundance fitness worked out at 0.125 ± 0.2.

With Y17C, the abundance fitness was -0.052 ± 0.041.

With Y17Q, the abundance fitness was -0.025 ± 0.071.

For Y17K, the abundance fitness was -0.03 ± 0.056.

As to Y17G, the abundance fitness was -0.199 ± 0.033.

With W13K, the abundance fitness is -0.67 ± 0.064.

With W13V, the abundance fitness was -0.303 ± 0.03.

In the case of W13Q, the abundance fitness is -0.729 ± 0.068.

On to W13L, for which the abundance fitness was -0.635 ± 0.046.

For W13D, the abundance fitness is -0.773 ± 0.096.

Consider K42T, for which the abundance fitness is -0.029 ± 0.039.

As to K42I, the abundance fitness is -0.097 ± 0.07.

Take K42V: the abundance fitness is -0.099 ± 0.033.

Regarding K42M, the abundance fitness is -0.1 ± 0.047.

Consider K42W, for which the abundance fitness is -0.115 ± 0.042.

For K42P, the abundance fitness is -0.094 ± 0.046.

With K42N, the abundance fitness is -0.168 ± 0.15.

Take T20G: the abundance fitness is -0.025 ± 0.028.

Turning to P10H, the abundance fitness was -0.677 ± 0.087.

Consider P10A, for which the abundance fitness is -0.392 ± 0.038.

P10L: the abundance fitness is -0.613 ± 0.046.

As to L6I, the abundance fitness turned out to be 0.141 ± 0.22.

Turning to L6P, the abundance fitness was -0.068 ± 0.039.

Turning to L6R, the abundance fitness was -0.026 ± 0.032.

With E4F, the abundance fitness is -0.097 ± 0.068.

For the variant E4A, the abundance fitness is -0.09 ± 0.038.

Take E4Q: the abundance fitness is -0.04 ± 0.035.

Take F25R: the abundance fitness is -0.692 ± 0.035.

As for F25G, the abundance fitness was -0.57 ± 0.03.

With F25M, the abundance fitness is -0.721 ± 0.43.

For the variant F25C, the abundance fitness was -0.774 ± 0.049.

With F25E, the abundance fitness was -0.565 ± 0.049.

With F25K, the abundance fitness was -0.68 ± 0.086.

With F25P, the abundance fitness was -0.679 ± 0.041.

On to F25I, for which the abundance fitness is -0.557 ± 0.14.

Consider T33Y, for which the abundance fitness was -0.447 ± 0.11.

Take T33P: the abundance fitness was -0.684 ± 0.053.

For the variant T33K, the abundance fitness is -0.388 ± 0.059.

Turning to P8D, the abundance fitness is -0.087 ± 0.05.

For the variant P8T, the abundance fitness is -0.162 ± 0.061.

P8W: the abundance fitness is -0.367 ± 0.042.

Turning to L36D, the abundance fitness is -0.183 ± 0.052.

With L36Q, the abundance fitness was -0.03 ± 0.036.

Consider L36G, for which the abundance fitness was -0.144 ± 0.032.

With L36W, the abundance fitness is -0.061 ± 0.033.

L36N: the abundance fitness is -0.121 ± 0.076.

T18L: the abundance fitness was -0.471 ± 0.063.

In the case of T18E, the abundance fitness was -0.389 ± 0.038.

On to T18W, for which the abundance fitness is -0.676 ± 0.054.

In the case of E7K, the abundance fitness is -0.101 ± 0.045.

For E7I, the abundance fitness is -0.218 ± 0.054.

As for E7L, the abundance fitness is -0.115 ± 0.035.

As to E7D, the abundance fitness was -0.113 ± 0.078.

Consider E7N, for which the abundance fitness is -0.238 ± 0.069.

The values are drawn from the Human Domainome abundance scans (Beltran et al. 2025).
